Experiments:
Assay in all cases: co-IP; receptor-mediated co-immunoprecipitation: sample (5.5 ug) with hFasRECD-Fc (8.8 ug) and Protein G conjugated magnetic beads (1.0 mg) in 1.0 ml 50 mM Tris-HCl, 150 mM NaCl (pH 7.5), 1% Nonidet P40, 0.5% sodium deoxycholate; precipitate read by SDS-PAGE with silver stain
Conditions in all cases: both partners purified
[1] = target: T1, sulfo-Cy3-TCO conjugated hFasLECD-MTZ (human, UniProt P48023 139-281, N184Q | N250Q, cysteine in the N-terminal tag sequence modified with methyltetrazine-PEG4-maleimide and conjugated with sulfo-Cy3-trans-cyclooctene; estimated 1.6 fluorochromes per hFasLECD trimer)
T1 construct: holds the reactive cysteine; human Fas ligand extracellular domain, residues 139-281, with N184Q and N250Q; Derived from NFK3G1CG4-hFasLECD; Not every subunit of the trimer carries the fluorochrome; also called Sulfo-Cy3-TM-hFasLECD; sulfo-Cy3 conjugated hFasLECD; source: P. pastoris secretory expression, purified (cation exchange); modified with MTZ-PEG4-MAL, reacted with sulfo-Cy3-TCO, purified …
T1 sequence: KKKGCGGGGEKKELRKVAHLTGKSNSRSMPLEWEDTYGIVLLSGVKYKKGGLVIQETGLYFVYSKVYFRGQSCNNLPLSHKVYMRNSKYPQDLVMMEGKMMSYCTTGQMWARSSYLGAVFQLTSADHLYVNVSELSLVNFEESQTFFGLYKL

[2] = target: T2, sulfo-Cy3-MTZ conjugated hFasLECD-TCO (human, UniProt P48023 139-281, N184Q | N250Q, cysteine in the N-terminal tag sequence modified with trans-cyclooctene-PEG3-maleimide and conjugated with sulfo-Cy3-methyltetrazine; estimated 1.5 fluorochromes per hFasLECD trimer)
T2 construct: holds the reactive cysteine; human Fas ligand extracellular domain, residues 139-281, with N184Q and N250Q; Derived from NFK3G1CG4-hFasLECD; Not every subunit of the trimer carries the fluorochrome; also called Sulfo-Cy3-MT-hFasLECD; sulfo-Cy3 conjugated hFasLECD; source: P. pastoris secretory expression, purified (cation exchange); modified with TCO-PEG3-MAL, reacted with sulfo-Cy3-MTZ, purified …
T2 sequence: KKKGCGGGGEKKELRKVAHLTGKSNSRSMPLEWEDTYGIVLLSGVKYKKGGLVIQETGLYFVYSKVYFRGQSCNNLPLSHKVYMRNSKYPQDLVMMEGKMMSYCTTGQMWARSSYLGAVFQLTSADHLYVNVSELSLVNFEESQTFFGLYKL

[3] = target: T3, Avidin-hFasLECD conjugate (human | chicken, UniProt P48023 139-281; P02701 25-152, N184Q | N250Q, cysteine in the N-terminal tag sequence modified with trans-cyclooctene-PEG3-maleimide, joined through the TCO-MTZ reaction to an MTZ-PEG4 group on avidin | lysine residues modified with …)
T3 construct: holds the reactive cysteine; human Fas ligand extracellular domain, residues 139-281, with N184Q and N250Q; avidin from chicken egg white, native homotetramer; Covalent chemical conjugate, thought to be one avidin tetramer to one hFasLECD trimer; on SDS-PAGE mainly one avidin subunit joined to one hFasLECD subunit, less of one avidin subunit with two hFasLECD subunits; not shown: FLAG, …

[4] = target: T4, TCO-derivative of NFK3G1CG4-hFasLECD (human, UniProt P48023 139-281, N184Q | N250Q, cysteine in the N-terminal tag sequence modified with trans-cyclooctene-PEG3-maleimide)
T4 construct: holds the reactive cysteine; human Fas ligand extracellular domain, residues 139-281, with N184Q and N250Q; also called hFasLECD-TCO; source: P. pastoris secretory expression, purified (cation exchange); modified with TCO-PEG3-MAL, size-exclusion chromatography; not shown: FLAG, N-terminal, kept
T4 sequence: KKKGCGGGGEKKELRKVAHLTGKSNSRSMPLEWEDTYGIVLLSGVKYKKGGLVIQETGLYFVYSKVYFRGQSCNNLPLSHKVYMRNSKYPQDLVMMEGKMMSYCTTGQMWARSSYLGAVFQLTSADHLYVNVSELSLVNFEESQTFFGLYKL

Measured: binding result

T3 sequence (P02701 25-152, stated change not applied, one chain of several): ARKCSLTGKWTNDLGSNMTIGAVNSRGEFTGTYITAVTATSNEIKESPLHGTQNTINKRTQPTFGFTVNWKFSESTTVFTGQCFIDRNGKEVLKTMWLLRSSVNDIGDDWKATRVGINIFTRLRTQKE

B1: human Fas receptor extracellular domain-human IgG1 Fc domain fusion protein (Fc fusion, UniProt P25445 26-173, looked up)
chain: QVTDINSKGLELRKTVTTVETQNLEGLHHDGQFCHKPCPPGERKARDCTVNGDEPDCVPCQEGKEYTDKAHFSSKCRRCRLCDEGHGLEVEINCTRTQNTKCRCKPNFFCNSTVCEHCDPCTKCEHGIIKECTLTSNTKCKEEGSRSN
notes: human Fas receptor (hFasR) extracellular domain; also called hFasRECD-Fc; source: baculovirus - Bombyx mori expression system, purified
binds: all assays above

Reference: article PMC5496246, “Site-specific chemical conjugation of human Fas ligand extracellular domain using trans-cyclooctene – methyltetrazine reactions” (BMC Biotechnology, 2017)
